test: yeast display, Sf9 membrane polyspecificity reagent, FACS + sequencing; frameworks hold sequencing errors
Method in brief: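 After 36–48 hours of galactose induction, yeast (Saccharomyces cerevisiae BJ5465) displaying a synthetic nanobody library were stained at 4 °C for 1 hour with 10% biotinylated, detergent-solubilized Sf9 membrane reagent. Streptavidin microbeads enriched the stained cells before FACS sorting into low and high (top ~1%) gates on anti-HA and streptavidin fluorescence. Each clone's polyreactivity label reflects its gate of origin.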

Sequence | polyreactivity (PSR sort gate)
QVQLVESGGGLVQAGGSLRLSCAASGSTFSANAMGWYRQAPGKERELVAGISRSGGRTYYADSVKGRFTISRDNEMNTVYLQMNSLKPEDTAVYYCNARRRGAGGYDYWGQGTQVTVSS | high polyreactivity
QVQLVESGGGLVQAGGSLRLSCAASGSTFSAYAMGWYRQAPGKERELVATITSDGSTNYADSVKGRFTISRDNAKNTVYLQMNSLKPEDTAVYYCAAKRQYKRSRMYYWGQGTQVTVSS | high polyreactivity
QVQLVESGGGLVQAGGSLRLSCAASGSTFSDNAMGWYRQAPGKERELVATINASGGSTYYADSVKGRFTITRDNAKNTVYLQMNSLKPEDTAVYYCAADVYTRFWRVYRFDYWGQGTQVTVSS | low polyreactivity
QVQLVESGGGLVQAGGSLRLSCAASGSTFSDNDMGWYRQAPGKERELVATIDDDGSTYYADSVKGRFTISRDNAKNTVYLQMNSLKPEDTAVYYCAAEWYGGYPFGYWGQGTQVTVSS | low polyreactivity
QVQLVESGGGLVQAGGSLRLSCAASGSTFSDYVMGWYRQAPGKEREFVDAISWTGGITYYADSVKGRFTISRDNAKNTVYLQMNSLKPEDTAVYYSAAKRKYYGNGYWGQGTQVTVSS | high polyreactivity
QVQLVESGGGLVQAGGSLRLSCAASGSTFSEKAMGWYRQAPGKERELVAAISRRGGSTYYADSVKGRFTISRDNAKNTVYYQMNSLKPEDTAVYYCNVVNSGSFDYDYWGQGTPVTVSS | high polyreactivity
QVQLVESGGGLVQAGGSLRLSCAASGSTFSEYVMGWYRQAPGKQRELVAAIRSNGGSTYYADSVKGRFTISRDNAKNTVYLQMNSLKPEDTAVYYCNRVYSRRTYNSPLYDYWGQGTQVTVSS | high polyreactivity
QVQLVESGGGLVQAGGSLRLSCAASGSTFSFNDMGGYRPAPGKERELVADISWSGDTTYADSVKGRFTISRDNAKNTVYLQMNSLIPEDSAVYYCNAEGFSISFYGNWVVQWEFDYWGQGTQVTVSS | high polyreactivity
QVQLVESGGGLVQAGGSLRLSCAASGSTFSGNAMGWYRQAPGKEREMVAAITSSRGSTYYADSVKGRFTISRDHAQNTVDLQLNSLKPEDTAVYYCNRYSGGRWYPEYYYWGQGTQVTVSS | high polyreactivity
QVQLVESGGGLVQAGGSLRLSCAASGSTFSGNTMGWYRQAPGKERELVADINWSSGSTYYADSVKGRFTISRDNAKNTVYLQMNSLKPEDTAVYYCAAVEPFYDFDYWGQGTQVTVSS | low polyreactivity
QVQLVESGGGLVQAGGSLRLSCAASGSTFSGYAMGWYRQAPGKEMEFVATISISGGSTYYADSVKGRFTISRDNAKNTVYLQMNSLKPEDTAVYYCNADYYFSWGSIEDYWGQGTQVTVSS | low polyreactivity
QVQLVESGGGLVQAGGSLRLSCAASGSTFSGYAMGWYRQAPGKERELVAAISRRGTSTYYADSVKGRFTISRDNAKNTVYLQMNSLKPEDTAVYYCAARPSGYVIGGYGYWGQGTQVTVSS | high polyreactivity
QVQLVESGGGLVQAGGSLRLSCAASGSTFSGYAMGWYRQAPGKERELVAAITRSGGSTYYADSVKGRFTISRDNAKNTVYLQMNSLKPEDTAVYYCNVYFGYWVPTSTYYWSWDDYWGQGTQVTVSS | low polyreactivity
QVQLVESGGGLVQAGGSLRLSCAASGSTFSHYTMGSYRQAAGKERELVAAITRSGGSTYYADSVKGRFTISRDNAKNTVYLQMNSLKTEDSAVYYSAATRHWNILRYDYWGQGTQVTVSS | low polyreactivity
QVQLVESGGGLVQAGGSLRLSCAASGSTFSINAMGWYRQAPGKERELVAAITWRGTRTYYADSVKGRFTISRDNAKNTVYLQMNSLTPEDTAVYYCAATGSGQASYYYWGQGTQVTVSS | high polyreactivity
QVQLVESGGGLVQAGGSLRLSCAASGSTFSKNTMGWYRQAPGKERELVAAITTRGSSTYYADSVKGRFTISRDNAKNTVYLQMNSLKPEDTAVYYCAAGRYGWKHVWYYYWGQGTQVTVSS | high polyreactivity
QVQLVESGGGLVQAGGSLRLSCAASGSTFSLYDMGWYRQAPGKERELVAAIRWSGDSTYYADSVKGRFTISRDNAKNTVYLQMNSLKPEDTAVYYCAKDQSSPWDIQFLVYGGYEYWGQGTQVTVSS | low polyreactivity
QVQLVESGGGLVQAGGSLRLSCAASGSTFSNNAMAWYRQAPGKERELVAGINSSGGRTYYADSVKGRFTISRDNAKNTVYLQMISLKPEDTAVYYCAAESRYYYELGYWGQGTQVTVSS | high polyreactivity
QVQLVESGGGLVQAGGSLRLSCAASGSTFSPNAMGWYRQAPGKERELVAAITGGGSTYADSVKGRFTISRDNAKNTVYLQMNSLKPEDTAVYYCNRDYRSDLGYADQSWTDQYDYWGQGTQVTVSS | low polyreactivity
QVQLVESGGGLVQAGGSLRLSCAASGSTFSPNAMGWYRQAPGKERELVAAITYRGANTYYADSVKGRFTISRDNAKNTVYLQMNSLKPEDTAVYYCAAEYAYHHVGFGYWGQGTLVTVSS | low polyreactivity
QVQLVESGGGLVQAGGSLRLSCAASGSTFSPNVMGWYRQAPGKERELVAAISSSTGSTNYADSVKGRFTISRDNAKNTVYLQMNSLKPEDTAVDYCAVDPYVHWTTKLYDYWGQGTLVTVSS | low polyreactivity

Sequence | polyreactivity (PSR sort gate)
QVQLVESGGGLVQAGGSLRLSCAASGSTFSPYAMGGSRQAPGKEREVVAAINSGSSTNYADSVKGRFTISRDNAKNTVYFQMNSLKPEDTAVYYCAADGQLPPRGILASWEFDYWGQGTQVTVSS | low polyreactivity
QVQLVESGGGLVQAGGSLRLSCAASGSTFSPYAMGWYRQAPGKEREIVAAISWGDGSTYYADSVKGRFTISRDNAKNTVYLQINSLKPEDTAVYYCNVKPSARGAPLYDYWGQGTQVTVSS | high polyreactivity
QVQLVESGGGLVQAGGSLRLSCAASGSTFSPYAMGWYRQSPGKEMELVAVITSSGGDTYYADSVKGRFTISRDNAKNTVYLQMNSLKPEDTAVYYCAADWWVLGQLWFDYWGQGTQVTVSS | low polyreactivity
QVQLVESGGGLVQAGGSLRLSCAASGSTFSPYDMGWYRQAPGKERELVAAITYRGGSTYYADSVKGRFTISRDNAKNTVYLQMNSLKPEDTAVYYCAAEIYQYSYGGTGWTLDWGQGTQVTVSS | low polyreactivity
QVQLVESGGGLVQAGGSLRLSCAASGSTFSQNAMGWYRQAPGKERELVAAITSGGITYYADSVKGRFTISRDNAKNTVYLQMNSLKPEDTAVYYCAAVTPSGAHRSAYHPISDYWGQGTQVTVSS | low polyreactivity
QVQLVESGGGLVQAGGSLRLSCAASGSTFSRNAMGWSRQAPGKERELVAAITRSGGSTYYADSVKGRFSISRDNAKNTVYLQMNSLKPEDTAVYYCAVLSVRRSYNYWGQGTQVTVSS | high polyreactivity
QVQLVESGGGLVQAGGSLRLSCAASGSTFSRYAMGWYRPAPGKERELVAAISRSGGTTYYADSVKGRFTISRDNAKNTVYLQMNSLKPEDTAVYYCNARGRYEYGYWGQGTQVTVSS | high polyreactivity
QVQLVESGGGLVQAGGSLRLSCAASGSTFSRYAMGWYRQAPGKEMELVAAISWSGGSTYYADSVKGRFTISRDNAKNTVYLQMNSLKPEDTAVYYCAAYTYSFRANHDYWGQGTQVTVTS | high polyreactivity
QVQLVESGGGLVQAGGSLRLSCAASGSTFSRYAMGWYRQAPGKERELVAAIRRSAGSTYYADSVKGRFTISRDNAKNTVYLQMNSLKPEDTAVYYCAAAGRYDYWGQGTQVTVSS | high polyreactivity
QVQLVESGGGLVQAGGSLRLSCAASGSTFSRYAMGWYRQAPGKERELVAAISRSGGSTYYADSVKGRFTISRDNAKNTVYLQMNSLKPEDTAVYYCAKVTTYVSAWQGNGYWGQGTQVTVSS | high polyreactivity
QVQLVESGGGLVQAGGSLRLSCAASGSTFSRYAMGWYRQAPGKERELVAAISSDGTTYYADSVKGRFTISRDNAKNTVYLQMNSLKPEDTAVYYCAKRGYYRSRRYDYWGQGTQVTVSS | high polyreactivity
QVQLVESGGGLVQAGGSLRLSCAASGSTFSRYAMGWYRQAPGKVRELVAAISWGGNTYYADSVKGRFTISRDNAKNTVYLQMNSLKPEDTAVYYCNRYSKLYNTMDYWGQGTQVTVSS | high polyreactivity
QVQLVESGGGLVQAGGSLRLSCAASGSTFSRYTMGWYRQAPGKERELVAGISGIGGSTDYADSVKGRFTISRDNAKNTVYLQMNSLKPEDTAVYYCNAEYTASYSRGFWRYYYPFEYWGQGTQVTVSS | high polyreactivity
QVQLVESGGGLVQAGGSLRLSCAASGSTFSSYAMGWYRQAPGKERELVAATYYADSVKGRFTISRDNAKNTVYLQMNSLKPEDTAVYYCNADNAYQGGKEYDYWGQGTQVTVSS | low polyreactivity
QVQLVESGGGLVQAGGSLRLSCAASGSTFSSYVMGWYRQAPGKERELVAGITRGGRTYYADSVKGRFTISRDNAKNTVYLQMNSLKPEDTAVYYCAKDQGGVHELDYWGQGTQVTVSS | low polyreactivity
QVQLVESGGGLVQAGGSLRLSCAASGSTFSTNAMGWYRQAPGKERELVAAISRSGGRTYYADSVKGRFTISRDNAKNTVYLQMNSLKPEDTAVYYCNAVRRFASPSPHYYWGQGTQVTVSS | high polyreactivity
QVQLVESGGGLVQAGGSLRLSCAASGSTFSTNAMGWYRQAPGKERELVAAISRSGGSTYYADSVKGRFTISRDNAKNTFYLQMNSLKPEDTAVYYCARYSYRGTNVRYDYCGQGTQVTVSS | high polyreactivity
QVQLVESGGGLVQAGGSLRLSCAASGSTFSTYAMGWYRQAPGKERELVAAITAGGGSTYYADSVKGRFTISRDNAKNTVYLQMNSLKPEDTAVYYCAARSYYRFGGGYWGQGTQVTVSS | high polyreactivity
QVQLVESGGGLVQAGGSLRLSCAASGSTFSTYDMGWYRQAPGKEREFVAAISDSGGSTYYADSVKGRFTISRDNAKNTVYLQMNSLKPEDTAVYYCNATVVFVQYVDYDYWGQGTQVTVSS | low polyreactivity
QVQLVESGGGLVQAGGSLRLSCAASGSTFSVNAMGWYIQAPGKEREFVAAIRWPGGSTYYADSVKGRFTISRDNAKNTVYLQLNSLKPEDTAVYYCAARIKYRYDWGQGTQVTVSS | low polyreactivity

Reference: the nanobody polyreactivity screen of Harvey et al. (2022)
